From article PMC6289461, “Mek1 coordinates meiotic progression with DNA break repair by directly phosphorylating and inhibiting the yeast pachytene exit regulator Ndt80”

Target: T1, 6xHis-Ndt80 5D DBD (Saccharomyces cerevisiae, UniProt P38830 1-340, S24D;S205D;T211D;S327D;S329D)
T1 sequence: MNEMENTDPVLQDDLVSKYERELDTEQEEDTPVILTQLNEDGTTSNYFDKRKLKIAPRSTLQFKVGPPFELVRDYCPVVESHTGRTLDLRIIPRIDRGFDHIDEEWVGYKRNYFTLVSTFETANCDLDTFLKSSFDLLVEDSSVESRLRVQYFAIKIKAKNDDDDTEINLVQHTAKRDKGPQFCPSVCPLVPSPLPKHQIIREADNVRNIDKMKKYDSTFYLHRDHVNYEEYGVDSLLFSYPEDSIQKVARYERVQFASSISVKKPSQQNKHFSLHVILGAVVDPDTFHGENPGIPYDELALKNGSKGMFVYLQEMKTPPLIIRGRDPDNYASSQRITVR
Assay: EMSA; 50 nM DBD, 50 nM duplex; EMSA: 10 mM Tris-HCl pH 7.5, 40 mM NaCl, 4 mM MgCl2, 6% glycerol, 10 mg/ml BSA, 10 ug/ml sonicated salmon sperm DNA; 20 ul, room temperature, 30 min; 6% PAGE in 0.5X TBE
Conditions: protein: recombinant, tags: N-terminal 6xHis (pET-28a), blunt

B1: Cy5-Scr duplex (dsDNA)
DNA 1: ATTGACGCGGCTTCATCTCACGTATCATT
DNA 2: AATGATACGTGAGATGAAGCCGCGTCAAT
- binding result (label: 5' Cy5 on strand 1): no binding

B2: Cy3-MSE (SPS4 MSE duplex) (dsDNA)
DNA 1: ATTGACGCGCGCCACAAAAACGTATCATT
DNA 2: AATGATACGTTTTTGTGGCGCGCGTCAAT
- binding result (label: 5' Cy3 on strand 1): no binding
